Assays:
[1] = test system: indicator molecule containing the cleavable sequence (GPQGIFGQ) with a terminal biotin group connected via a polyethylene glycol spacer/linker, intact
[2] = test system: fluorescence resonance energy transfer (FRET) peptide of the commercial MMP-9 activity assay kit

Sequence of active MMP-9 (Alere San Diego) (chain, as listed by the source): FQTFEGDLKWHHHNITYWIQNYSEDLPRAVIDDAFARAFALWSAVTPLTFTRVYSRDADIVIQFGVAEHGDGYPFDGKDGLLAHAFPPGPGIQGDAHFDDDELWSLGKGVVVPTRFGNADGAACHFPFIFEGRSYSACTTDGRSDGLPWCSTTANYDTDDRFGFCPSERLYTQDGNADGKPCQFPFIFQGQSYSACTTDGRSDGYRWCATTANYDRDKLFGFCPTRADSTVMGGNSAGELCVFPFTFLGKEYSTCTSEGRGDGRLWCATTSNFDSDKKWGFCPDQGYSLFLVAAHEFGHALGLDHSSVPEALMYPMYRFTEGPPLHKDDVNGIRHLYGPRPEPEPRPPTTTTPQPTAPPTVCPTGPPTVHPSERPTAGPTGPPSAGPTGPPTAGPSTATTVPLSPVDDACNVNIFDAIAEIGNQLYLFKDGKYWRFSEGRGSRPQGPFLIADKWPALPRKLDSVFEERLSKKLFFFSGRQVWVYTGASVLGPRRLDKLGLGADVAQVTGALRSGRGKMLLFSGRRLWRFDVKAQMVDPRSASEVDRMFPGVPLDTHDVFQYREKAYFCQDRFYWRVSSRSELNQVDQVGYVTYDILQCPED
Sequence of MMP9 (Enzo) (chain, as listed by the source): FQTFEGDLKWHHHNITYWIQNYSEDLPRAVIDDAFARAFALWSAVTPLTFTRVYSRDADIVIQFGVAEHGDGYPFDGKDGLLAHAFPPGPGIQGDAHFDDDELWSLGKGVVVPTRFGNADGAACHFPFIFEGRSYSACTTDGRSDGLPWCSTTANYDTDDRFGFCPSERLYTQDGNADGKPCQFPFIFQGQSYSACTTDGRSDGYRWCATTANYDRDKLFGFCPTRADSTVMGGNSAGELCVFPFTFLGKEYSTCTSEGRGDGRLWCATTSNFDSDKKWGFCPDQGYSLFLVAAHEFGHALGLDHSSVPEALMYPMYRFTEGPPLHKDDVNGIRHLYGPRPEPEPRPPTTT
Sequence of MMP2 (Enzo) (chain, as listed by the source): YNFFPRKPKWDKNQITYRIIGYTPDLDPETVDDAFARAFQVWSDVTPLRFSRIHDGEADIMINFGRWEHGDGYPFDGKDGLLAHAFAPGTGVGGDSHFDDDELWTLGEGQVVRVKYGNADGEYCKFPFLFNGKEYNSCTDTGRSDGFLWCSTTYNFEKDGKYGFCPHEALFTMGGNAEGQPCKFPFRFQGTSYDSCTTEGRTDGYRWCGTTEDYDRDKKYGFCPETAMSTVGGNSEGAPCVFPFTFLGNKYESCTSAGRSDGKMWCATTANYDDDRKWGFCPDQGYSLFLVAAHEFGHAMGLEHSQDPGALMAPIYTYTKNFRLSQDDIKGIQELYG
Sequence of MMP10 (Enzo) (chain, as listed by the source): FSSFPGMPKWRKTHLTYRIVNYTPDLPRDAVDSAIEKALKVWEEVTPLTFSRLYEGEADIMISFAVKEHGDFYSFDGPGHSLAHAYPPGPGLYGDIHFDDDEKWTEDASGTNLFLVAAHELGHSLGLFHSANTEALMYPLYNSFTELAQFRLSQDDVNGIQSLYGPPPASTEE
Sequence of MMP3 (Enzo) (chain, as listed by the source): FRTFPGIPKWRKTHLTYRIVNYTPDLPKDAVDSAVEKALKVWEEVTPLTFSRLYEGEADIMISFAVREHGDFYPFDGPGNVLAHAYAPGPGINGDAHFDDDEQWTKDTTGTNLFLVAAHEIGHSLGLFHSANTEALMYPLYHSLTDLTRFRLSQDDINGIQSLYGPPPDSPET
Sequence of MMP8 (Enzo) (chain, as listed by the source): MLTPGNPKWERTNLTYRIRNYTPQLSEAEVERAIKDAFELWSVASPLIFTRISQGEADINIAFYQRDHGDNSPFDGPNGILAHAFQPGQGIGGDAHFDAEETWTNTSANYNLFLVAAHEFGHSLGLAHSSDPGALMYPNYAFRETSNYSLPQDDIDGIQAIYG

Substance: MMP2 (Enzo)
- reader value at 0.5 µg/ml MMP (lateral flow) [1]: 1610 reader units

Substance: MMP3 (Enzo)
- reader value at 0.5 µg/ml MMP (lateral flow) [1]: 336 reader units

Substance: MMP8 (Enzo)
- reader value at 0.5 µg/ml MMP (lateral flow) [1]: 1140 reader units

Substance: MMP9 (Enzo)
- reader value at 0.5 µg/ml MMP (lateral flow) [1]: 3840 reader units

Substance: MMP10 (Enzo)
- reader value at 0.5 µg/ml MMP (lateral flow) [1]: 444 reader units

Substance: active MMP-9 (Alere San Diego)
- OD405 at 0.39 ng/ml MMP9 (ELISA, streptavidin plate, CF1522-AP) [1]: 0.14 OD405
- OD405 at 0.78 ng/ml MMP9 (ELISA, streptavidin plate, CF1522-AP) [1]: 0.14 OD405
- OD405 at 1.56 ng/ml MMP9 (ELISA, streptavidin plate, CF1522-AP) [1]: 0.14 OD405
- OD405 at 3.13 ng/ml MMP9 (ELISA, streptavidin plate, CF1522-AP) [1]: 0.13 OD405
- OD405 at 6.25 ng/ml MMP9 (ELISA, streptavidin plate, CF1522-AP) [1]: 0.17 OD405
- OD405 at 12.50 ng/ml MMP9 (ELISA, streptavidin plate, CF1522-AP) [1]: 0.18 OD405
- OD405 at 25.00 ng/ml MMP9 (ELISA, streptavidin plate, CF1522-AP) [1]: 0.27 OD405
- OD405 at 50.00 ng/ml MMP9 (ELISA, streptavidin plate, CF1522-AP) [1]: 0.5 OD405
- Ultimate ELTABA reader value at 3.90625 ng/ml MMP9 (lateral flow) [1]: 413 reader units
- Ultimate ELTABA reader value at 7.8125 ng/ml MMP9 (lateral flow) [1]: 524 reader units
- Ultimate ELTABA reader value at 15.625 ng/ml MMP9 (lateral flow) [1]: 882 reader units
- Ultimate ELTABA reader value at 31.25 ng/ml MMP9 (lateral flow) [1]: 2030 reader units
- Ultimate ELTABA reader value at 62.5 ng/ml MMP9 (lateral flow) [1]: 3830 reader units
- Ultimate ELTABA reader value at 125 ng/ml MMP9 (lateral flow) [1]: 5580 reader units
- Ultimate ELTABA reader value at 250 ng/ml MMP9 (lateral flow) [1]: 6220 reader units
- detectable limit for MMP-9 (lateral flow, sample volume 75 µl) [1]: approximately 4 ng/ml
- reader value at 0.9765625 ng/ml MMP9 (lateral flow) [1]: 338 reader units
- reader value at 0.98 ng/ml MMP9 (lateral flow) [1]: 338 reader units
- reader value at 1.95 ng/ml MMP9 (lateral flow) [1]: 343 reader units
- reader value at 1.953125 ng/ml MMP9 (lateral flow) [1]: 343 reader units
- reader value at 3.90625 ng/ml MMP9 (lateral flow) [1]: 413 reader units
- reader value at 3.91 ng/ml MMP9 (lateral flow) [1]: 413 reader units
- reader value at 7.81 ng/ml MMP9 (lateral flow) [1]: 524 reader units
- reader value at 7.8125 ng/ml MMP9 (lateral flow) [1]: 524 reader units
- reader value at 15.625 ng/ml MMP9 (lateral flow) [1]: 882 reader units
- reader value at 15.63 ng/ml MMP9 (lateral flow) [1]: 882 reader units
- reader value at 31.25 ng/ml MMP9 (lateral flow) [1]: 2030 reader units
- reader value at 62.5 ng/ml MMP9 (lateral flow) [1]: 3830 reader units
- reader value at 62.50 ng/ml MMP9 (lateral flow) [1]: 3830 reader units
- reader value at 125 ng/ml MMP9 (lateral flow) [1]: 5580 reader units
- reader value at 250 ng/ml MMP9 (lateral flow) [1]: 6220 reader units
- reader value at 500 ng/ml MMP9 (lateral flow) [1]: 6730 reader units
- reader value at 1000 ng/ml MMP9 (lateral flow) [1]: 6770 reader units
- sensitivity of the MMP9 standard curves (ELISA and lateral flow) [1]: sensitivity down to 4 ng/ml
- Reference assay read-out at 0 ng/ml MMP9 (blank) [2]: 3820
- Reference assay read-out at 3.90625 ng/ml MMP9 [2]: 7600
- Reference assay read-out at 7.8125 ng/ml MMP9 [2]: 13100
- Reference assay read-out at 15.625 ng/ml MMP9 [2]: 31300
- Reference assay read-out at 31.25 ng/ml MMP9 [2]: 62300
- Reference assay read-out at 62.5 ng/ml MMP9 [2]: 113000
- Reference assay read-out at 125 ng/ml MMP9 [2]: 163000
- Reference assay read-out at 250 ng/ml MMP9 [2]: 204000
